Where a chain is given by its changes, count along the chain named. Where no end group is shown, it is not given here.
Key:
[1] = biological target: T1, human MASP-2cf CCP1-CCP2-SP (human, UniProt O00187 298-686, limits assumed); assay: SPR, target immobilised
T1 construct: domain: CCP1-CCP2-SP; also called human MASP-2 catalytic fragment

[2] = biological target: T2, rat MASP-2cf CCP1-CCP2-SP (rat, UniProt Q9JJS8 298-685); assay: SPR, target immobilised
T2 construct: range 298-685; Mw 42309 Da; also called rat MASP-2 catalytic fragment
T2 sequence (Q9JJS8 other isoform, or with tags, fused parts or gaps limits assumed, form in doubt): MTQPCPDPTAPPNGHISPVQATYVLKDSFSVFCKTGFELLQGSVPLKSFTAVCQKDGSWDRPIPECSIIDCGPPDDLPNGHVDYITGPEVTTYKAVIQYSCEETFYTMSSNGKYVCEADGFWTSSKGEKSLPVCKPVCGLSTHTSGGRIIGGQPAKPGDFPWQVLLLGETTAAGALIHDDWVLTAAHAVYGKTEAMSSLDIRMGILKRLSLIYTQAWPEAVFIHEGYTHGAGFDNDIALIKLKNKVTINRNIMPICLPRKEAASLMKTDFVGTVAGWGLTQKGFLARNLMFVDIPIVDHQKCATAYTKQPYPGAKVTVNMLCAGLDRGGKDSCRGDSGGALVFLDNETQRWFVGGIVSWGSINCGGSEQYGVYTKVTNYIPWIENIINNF

[3] = biological target: T3, human MASP-2 (in normal human serum) (human, UniProt O00187 16-686); assay: cell-based or functional assay
T3 sequence (O00187 16-686 limits assumed): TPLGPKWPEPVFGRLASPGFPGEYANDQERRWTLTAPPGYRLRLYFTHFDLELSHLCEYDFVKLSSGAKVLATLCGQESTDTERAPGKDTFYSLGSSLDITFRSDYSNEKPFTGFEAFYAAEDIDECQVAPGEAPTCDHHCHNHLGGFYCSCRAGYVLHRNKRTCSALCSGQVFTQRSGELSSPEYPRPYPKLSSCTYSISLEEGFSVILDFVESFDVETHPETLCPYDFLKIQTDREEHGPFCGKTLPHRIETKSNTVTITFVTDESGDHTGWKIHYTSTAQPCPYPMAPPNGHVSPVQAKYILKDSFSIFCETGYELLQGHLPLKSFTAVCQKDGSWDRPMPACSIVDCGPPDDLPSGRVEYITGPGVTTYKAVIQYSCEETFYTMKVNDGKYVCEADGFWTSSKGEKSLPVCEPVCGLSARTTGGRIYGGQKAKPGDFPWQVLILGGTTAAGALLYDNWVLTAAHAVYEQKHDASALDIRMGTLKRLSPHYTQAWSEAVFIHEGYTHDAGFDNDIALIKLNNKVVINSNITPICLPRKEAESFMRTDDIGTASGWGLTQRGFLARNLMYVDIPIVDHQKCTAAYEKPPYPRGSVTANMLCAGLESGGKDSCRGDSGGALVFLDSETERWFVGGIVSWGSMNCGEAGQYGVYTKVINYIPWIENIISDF

[4] = biological target: rat MASP-2 (in rat serum) (rat, UniProt Q9JJS8 20-685); assay: cell-based or functional assay
rat MASP-2 (in rat serum), sequence (Q9JJS8 20-685 limits assumed): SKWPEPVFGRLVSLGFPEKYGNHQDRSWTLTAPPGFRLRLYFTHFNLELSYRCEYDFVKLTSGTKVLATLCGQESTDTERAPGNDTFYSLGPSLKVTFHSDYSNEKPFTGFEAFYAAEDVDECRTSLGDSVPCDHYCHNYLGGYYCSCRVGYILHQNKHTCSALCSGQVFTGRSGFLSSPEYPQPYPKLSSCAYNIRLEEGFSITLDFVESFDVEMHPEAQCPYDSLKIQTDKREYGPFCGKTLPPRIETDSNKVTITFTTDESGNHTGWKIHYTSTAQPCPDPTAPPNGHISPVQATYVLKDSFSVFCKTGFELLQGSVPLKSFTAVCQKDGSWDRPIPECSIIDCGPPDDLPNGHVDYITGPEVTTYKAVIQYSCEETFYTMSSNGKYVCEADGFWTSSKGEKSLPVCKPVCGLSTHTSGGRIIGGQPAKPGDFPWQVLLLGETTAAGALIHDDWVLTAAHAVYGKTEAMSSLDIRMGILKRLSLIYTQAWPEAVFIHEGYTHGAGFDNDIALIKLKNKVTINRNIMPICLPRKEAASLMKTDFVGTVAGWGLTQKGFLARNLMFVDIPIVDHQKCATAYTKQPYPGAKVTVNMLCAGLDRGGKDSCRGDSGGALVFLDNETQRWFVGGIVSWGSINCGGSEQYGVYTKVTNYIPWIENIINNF

[5] = biological target: T3, human MASP-2 (in normal human serum); assay: cell-based or functional assay; remark: listed apart in the source

T1 sequence (O00187 298-686 limits assumed): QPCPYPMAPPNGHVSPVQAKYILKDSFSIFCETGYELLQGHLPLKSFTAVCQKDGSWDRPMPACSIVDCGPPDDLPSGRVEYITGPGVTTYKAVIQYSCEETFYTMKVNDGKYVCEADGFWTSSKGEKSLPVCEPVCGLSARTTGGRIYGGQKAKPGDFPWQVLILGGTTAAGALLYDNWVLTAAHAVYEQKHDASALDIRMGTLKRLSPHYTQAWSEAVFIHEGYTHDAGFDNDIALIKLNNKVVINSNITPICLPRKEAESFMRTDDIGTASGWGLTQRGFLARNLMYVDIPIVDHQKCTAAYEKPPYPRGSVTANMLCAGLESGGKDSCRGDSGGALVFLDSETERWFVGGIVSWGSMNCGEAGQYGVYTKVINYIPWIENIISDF

B1: EVO2a (designed binder)
chain: KPDFCFLENDPGPCRAVKRRYFYNNQTKQCERFKYGGCLGNMNNFETLEECKNICEDG
modifications: not fully specified; cysteine pairing not given here
notes: Modified TFPI-D2 Kunitz domain; made as m1
For B1, which Kd [1] is on record?
The Kd was 2.95 nM.

What about the Relative affinity [1] of the same binder?
Its Relative affinity is 0.6 fold vs EVO2.

What about the koff [1] of the same binder?
The koff was 0.0021 s⁻¹.

And the kon [1]?
The kon was 711000 M⁻¹ s⁻¹.

What about the Kd [2] of the same binder?
Its Kd is 4.73 nM.

What about the Relative affinity [2] of the same binder?
The Relative affinity was 0.8 fold vs EVO2.

And the koff [2]?
Its koff is 0.00151 s⁻¹.

What about the kon [2] of the same binder?
The kon was 319000 M⁻¹ s⁻¹.

What about the “IC50, lectin pathway C4 deposition, human serum” value (“IC50 … human serum” below) [3] of the same binder?
Its value is 215 nM.

And the “Relative potency, lectin pathway, human serum” value (“Relative potency … human serum” below) [3]?
The value was 0.6 fold vs EVO2.

What about the “IC50, lectin pathway C4 deposition, rat serum” value (“IC50 … rat serum” below) [4] of the same binder?
Its value is 213 nM.

And the “Relative potency, lectin pathway, rat serum” value (from here on “Relative potency … rat serum”) [4]?
The value was 0.5 fold vs EVO2.

B2: EVO21b (designed binder)
chain: B1 chain with N9E, V17L, K34G, E46V
modifications: not fully specified; cysteine pairing not given here
With B2 as the binder, how does the “Relative potency (relative human lectin pathway inhibitory efficiency compared to EVO2)” value [5] read?
The value was 32.1 fold relative to EVO2.

And the “IC50 … human serum” value [3]?
The value was 4.3 nM.

What about the “Relative potency … human serum” value [3] of the same binder?
The value was 31.9 fold vs EVO2.

And the “IC50 … rat serum” value [4]?
The value was 7.2 nM.

What about the “Relative potency … rat serum” value [4] of the same binder?
The value was 14.7 fold vs EVO2.

B3: EVO21d (designed binder)
chain: B1 chain with N9E, V17L, K34S, L39F, E46V
modifications: not fully specified; cysteine pairing not given here
B3 was tested. Which “IC50 … human serum” value [3] did it give?
Its value is 8.3 nM.

And the “Relative potency … human serum” value [3]?
The value was 16.6 fold vs EVO2.

And the “IC50 … rat serum” value [4]?
Its value is 25.9 nM.

What about the “Relative potency … rat serum” value [4] of the same binder?
The value was 4.1 fold vs EVO2.

B4: EVO23a (designed binder)
chain: B1 chain with N9E, V17L, K34Y, L39F, E46V
Which “Relative potency (relative human lectin pathway inhibitory efficiency compared to EVO2)” value [5] does the source give for B4 here?
Its value is 43.1 fold relative to EVO2.

And the “IC50 … human serum” value [3]?
Its value is 3.2 nM.

What about the “Relative potency … human serum” value [3] of the same binder?
The value was 43 fold vs EVO2.

What about the “IC50 … rat serum” value [4] of the same binder?
Its value is 14.1 nM.

And the “Relative potency … rat serum” value [4]?
The value was 7.5 fold vs EVO2.

B5: EVO216 (designed binder)
chain: B1 chain with P13W, V17A, R19L, K34G, E46V
modifications: not fully specified; cysteine pairing not given here
notes: as for B1
B5 was tested. Which Kd [1] did it give?
The Kd was 0.76 nM.

And the Relative affinity [1]?
Its Relative affinity is 2.4 fold vs EVO2.

What about the koff [1] of the same binder?
The koff was 0.000732 s⁻¹.

What about the kon [1] of the same binder?
The kon was 963000 M⁻¹ s⁻¹.

What about the “IC50 … human serum” value [3] of the same binder?
Its value is 30.9 nM.

What about the “Relative potency … human serum” value [3] of the same binder?
The value was 4.5 fold vs EVO2.

B6: EVO22a (designed binder)
chain: B1 chain with V17A, K34Y, E46V
notes: as for B1
How did the Relative affinity [1] turn out when B6 was run?
Its Relative affinity is 40.1 fold vs EVO2.

And the koff [1]?
The koff was 9.09e-05 s⁻¹.

And the kon [1]?
Its kon is 2.04e+06 M⁻¹ s⁻¹.

What about the Kd [2] of the same binder?
The Kd was 0.192 nM.

And the Relative affinity [2]?
The Relative affinity was 18.9 fold vs EVO2.

And the koff [2]?
Its koff is 0.000163 s⁻¹.

What about the kon [2] of the same binder?
Its kon is 847000 M⁻¹ s⁻¹.

What about the “IC50 … human serum” value [3] of the same binder?
The value was 3.7 nM.

And the “Relative potency … human serum” value [3]?
The value was 37.1 fold vs EVO2.

And the “IC50 … rat serum” value [4]?
Its value is 10.6 nM.

And the “Relative potency … rat serum” value [4]?
The value was 10 fold vs EVO2.

B7: EVO2b (designed binder)
chain: B1 chain with N9E, K34G
modifications: not fully specified; cysteine pairing not given here
notes: as for B1
B7 was tested. Which Kd [1] did it give?
Its Kd is 1.97 nM.

And the Relative affinity [1]?
The Relative affinity was 0.9 fold vs EVO2.

What about the koff [1] of the same binder?
Its koff is 0.00156 s⁻¹.

And the kon [1]?
The kon was 790000 M⁻¹ s⁻¹.

And the Kd [2]?
The Kd was 1.95 nM.

What about the Relative affinity [2] of the same binder?
Its Relative affinity is 1.9 fold vs EVO2.

What about the koff [2] of the same binder?
Its koff is 0.000942 s⁻¹.

What about the kon [2] of the same binder?
Its kon is 484000 M⁻¹ s⁻¹.

What about the “IC50 … human serum” value [3] of the same binder?
Its value is 62.7 nM.

What about the “Relative potency … human serum” value [3] of the same binder?
The value was 2.2 fold vs EVO2.

And the “IC50 … rat serum” value [4]?
Its value is 34.3 nM.

What about the “Relative potency … rat serum” value [4] of the same binder?
The value was 3.1 fold vs EVO2.

B8: EVO212 (designed binder)
chain: B1 chain with P13L, V17L, K34G, E46V
modifications: not fully specified; ends and bridges not checked
notes: as for B1
With B8 as the binder, how does the Kd [1] read?
The Kd was 0.055 nM.

What about the Relative affinity [1] of the same binder?
The Relative affinity was 32.7 fold vs EVO2.

What about the koff [1] of the same binder?
Its koff is 8.26e-05 s⁻¹.

And the kon [1]?
Its kon is 1.51e+06 M⁻¹ s⁻¹.

What about the Kd [2] of the same binder?
The Kd was 1.26 nM.

What about the Relative affinity [2] of the same binder?
The Relative affinity was 2.9 fold vs EVO2.

What about the koff [2] of the same binder?
The koff was 0.000618 s⁻¹.

What about the kon [2] of the same binder?
Its kon is 492000 M⁻¹ s⁻¹.

And the “IC50 … human serum” value [3]?
Its value is 6.2 nM.

And the “Relative potency … human serum” value [3]?
The value was 22.1 fold vs EVO2.

And the “IC50 … rat serum” value [4]?
The value was 46.3 nM.

What about the “Relative potency … rat serum” value [4] of the same binder?
The value was 2.3 fold vs EVO2.

B9: EVO22b (designed binder)
chain: B1 chain with V17L, K18A, K34Y, E46V
modifications: not fully specified; cysteine pairing not given here
notes: as for B1
B9 was tested. Which Kd [1] did it give?
The Kd was 0.21 nM.

What about the Relative affinity [1] of the same binder?
Its Relative affinity is 8.5 fold vs EVO2.

And the koff [1]?
Its koff is 0.00026 s⁻¹.

What about the kon [1] of the same binder?
Its kon is 1.24e+06 M⁻¹ s⁻¹.

And the Kd [2]?
The Kd was 0.163 nM.

And the Relative affinity [2]?
Its Relative affinity is 22.3 fold vs EVO2.

And the koff [2]?
Its koff is 0.000159 s⁻¹.

And the kon [2]?
The kon was 975000 M⁻¹ s⁻¹.

And the “IC50 … human serum” value [3]?
The value was 13.7 nM.

And the “Relative potency … human serum” value [3]?
The value was 10 fold vs EVO2.

What about the “IC50 … rat serum” value [4] of the same binder?
Its value is 9.7 nM.

And the “Relative potency … rat serum” value [4]?
Its value is 11 fold vs EVO2.

B10: EVO2c (designed binder)
chain: B1 chain with N9E, K34Y
modifications: not fully specified; cysteine pairing not given here
notes: as for B1
With B10 as the binder, how does the Kd [1] read?
The Kd was 1.04 nM.

And the Relative affinity [1]?
The Relative affinity was 1.7 fold vs EVO2.

What about the koff [1] of the same binder?
The koff was 0.00161 s⁻¹.

And the kon [1]?
The kon was 1.55e+06 M⁻¹ s⁻¹.

What about the Kd [2] of the same binder?
The Kd was 1.31 nM.

What about the Relative affinity [2] of the same binder?
The Relative affinity was 2.8 fold vs EVO2.

What about the koff [2] of the same binder?
Its koff is 0.000978 s⁻¹.

And the kon [2]?
The kon was 747000 M⁻¹ s⁻¹.

And the “IC50 … human serum” value [3]?
Its value is 22.3 nM.

And the “Relative potency … human serum” value [3]?
Its value is 6.2 fold vs EVO2.

What about the “IC50 … rat serum” value [4] of the same binder?
Its value is 34.3 nM.

What about the “Relative potency … rat serum” value [4] of the same binder?
Its value is 3.1 fold vs EVO2.

B11: EVO215 (designed binder)
chain: B1 chain with P13W, V17A, K34G, E46V
modifications: not fully specified; ends and bridges not checked
notes: as for B1
B11 was tested. Which Kd [1] did it give?
Its Kd is 0.304 nM.

What about the Relative affinity [1] of the same binder?
Its Relative affinity is 5.9 fold vs EVO2.

And the koff [1]?
Its koff is 0.000559 s⁻¹.

And the kon [1]?
Its kon is 1.84e+06 M⁻¹ s⁻¹.

What about the “IC50 … human serum” value [3] of the same binder?
The value was 22.7 nM.

What about the “Relative potency … human serum” value [3] of the same binder?
The value was 6.1 fold vs EVO2.

B12: EVO211 (designed binder)
chain: B1 chain with P13W, V17L, K34G, E46V
modifications: not fully specified; ends and bridges not checked
notes: as for B1
B12 was tested. Which Kd [1] did it give?
Its Kd is 0.043 nM.

And the Relative affinity [1]?
Its Relative affinity is 41.6 fold vs EVO2.

And the koff [1]?
Its koff is 6.62e-05 s⁻¹.

What about the kon [1] of the same binder?
Its kon is 1.54e+06 M⁻¹ s⁻¹.

And the Kd [2]?
Its Kd is 2.87 nM.

And the Relative affinity [2]?
The Relative affinity was 1.3 fold vs EVO2.

What about the koff [2] of the same binder?
Its koff is 0.0027 s⁻¹.

What about the kon [2] of the same binder?
Its kon is 942000 M⁻¹ s⁻¹.

And the “IC50 … human serum” value [3]?
Its value is 3.1 nM.

And the “Relative potency … human serum” value [3]?
Its value is 44 fold vs EVO2.

And the “IC50 … rat serum” value [4]?
Its value is 53.2 nM.

And the “Relative potency … rat serum” value [4]?
Its value is 2 fold vs EVO2.

B13: EVO213 (designed binder)
chain: B1 chain with V17A, K34G, E46V
notes: as for B1
Which results are given for B13?
Kd [1]: 0.542 nM; Relative affinity [1]: 3.3 fold vs EVO2; koff [1]: 0.000524 s⁻¹; kon [1]: 967000 M⁻¹ s⁻¹; Kd [2]: 3.81 nM; Relative affinity [2]: 1 fold vs EVO2; koff [2]: 0.00147 s⁻¹; kon [2]: 386000 M⁻¹ s⁻¹; IC50, lectin pathway C4 deposition, human serum [3]: 28.3 nM; Relative potency, lectin pathway, human serum [3]: 4.9 fold vs EVO2; IC50, lectin pathway C4 deposition, rat serum [4]: 88.7 nM; Relative potency, lectin pathway, rat serum [4]: 1.2 fold vs EVO2

B14: EVO2d (designed binder)
chain: B1 chain with N9E, V17L
modifications: not fully specified; cysteine pairing not given here
notes: as for B1
With B14 as the binder, how does the Kd [1] read?
The Kd was 1.19 nM.

And the Relative affinity [1]?
Its Relative affinity is 1.5 fold vs EVO2.

What about the koff [1] of the same binder?
The koff was 0.00108 s⁻¹.

What about the kon [1] of the same binder?
The kon was 909000 M⁻¹ s⁻¹.

And the Kd [2]?
The Kd was 1.08 nM.

What about the Relative affinity [2] of the same binder?
The Relative affinity was 3.4 fold vs EVO2.

What about the koff [2] of the same binder?
The koff was 0.000438 s⁻¹.

What about the kon [2] of the same binder?
The kon was 405000 M⁻¹ s⁻¹.

And the “IC50 … human serum” value [3]?
The value was 60.3 nM.

And the “Relative potency … human serum” value [3]?
The value was 2.3 fold vs EVO2.

What about the “IC50 … rat serum” value [4] of the same binder?
Its value is 70.9 nM.

And the “Relative potency … rat serum” value [4]?
Its value is 1.5 fold vs EVO2.
